# Where “and” joins values, the source holds several entries; their conditions need not be identical. Equal values may be shown once.
# Tests used:
# Assay type in all cases: in vivo, NOD/SCID mice
# [1] = Small animal PET/CT imaging, H2009 tumor bearing mice; conditions: NOD/SCID, mouse, iv, total radioactivity
# [2] = tested on: H2009 (αvβ6^+) xenografts; assay: as above; conditions: for Tumor uptake: quantitative PET, mean ± s.d.; for Tumor uptake / Tumor/Lung: n = 3; for Tumor/Lung: ratio of PET uptakes; for tumor uptake increase as compared to 64Cu-M10: H2009 tumor, all three time points (1 h, 4 h, 24 h p.i.)
# [3] = Small animal PET/CT imaging, H460 tumor bearing mice; conditions: NOD/SCID, mouse, iv, total radioactivity
# H460 (αvβ6^-) xenografts = assay: as above; conditions: H460 tumor bearing mice, quantitative PET, mean ± s.d., n = 3
# [4] = H2009 tumor bearing mice, 1 h p.i.
# [5] = H2009 tumor bearing mice, 4 h p.i.
# [6] = H2009 tumor bearing mice, 24 h p.i.
structure (smiles),measurement,setting,value
"CC(C)C[C@H](NC(=O)[C@H](CCC(N)=O)NC(=O)[C@H](CCCNC(=N)N)NC(=O)[C@H](CC(C)C)NC(=O)[C@@H](NC(=O)[C@H](C)NC(=O)[C@H](CC(C)C)NC(=O)[C@H](CC(=O)O)NC(=O)CNC(=O)[C@@H](N)CCCNC(=N)N)[C@@H](C)O)C(=O)NCCOCCOCCOCCOCCOCCOCCOCCOCCOCCOCCOCCOCCC(=O)N[C@@H](CSC1CC(=O)N(CCNC(=O)CCC(C(=O)O)N2CCCN3CCN(CCCN(C(CCC(=O)NCCN4C(=O)CC(SC[C@H](NC(=O)CCOCCOCCOCCOCCOCCOCCOCCOCCOCCOCCOCCOCCNC(=O)[C@H](CC(C)C)NC(=O)[C@H](CCC(N)=O)NC(=O)[C@H](CCCNC(=N)N)NC(=O)[C@H](CC(C)C)NC(=O)[C@@H](NC(=O)[C@H](C)NC(=O)[C@H](CC(C)C)NC(=O)[C@H](CC(=O)O)NC(=O)CNC(=O)[C@@H](N)CCCNC(=N)N)[C@@H](C)O)C(N)=O)C4=O)C(=O)O)CC3)CC2)C1=O)C(N)=O (some centres unmarked) [^64Cu-(M10)2, metal not drawn]",tissue uptake at 1 h,[1]; heart,1.56 ± 0.15 %ID/g
same,tissue uptake at 4 h,[1]; heart,0.71 ± 0.03 %ID/g
same,tissue uptake at 24 h,[1]; heart,0.32 ± 0.03 %ID/g
same,tissue uptake at 1 h,[1]; kidney,53.6 ± 8.68 %ID/g
same,tissue uptake at 4 h,[1]; kidney,46.2 ± 10.4 %ID/g
same,tissue uptake at 24 h,[1]; kidney,27.3 ± 7.3 %ID/g
same,tissue uptake at 1 h,[1]; liver,2.13 ± 0.73 %ID/g
same,tissue uptake at 4 h,[1]; liver,1.9 %ID/g
same,tissue uptake at 24 h,[1]; liver,1.26 ± 0.25 %ID/g
same,tissue uptake at 1 h,[1]; lung,1.66 ± 0.15 %ID/g
same,tissue uptake at 4 h,[1]; lung,0.72 ± 0.02 %ID/g
same,tissue uptake at 24 h,[1]; lung,0.4 ± 0.03 %ID/g
same,tissue uptake at 1 h,[1]; muscle,0.87 ± 0.04 %ID/g
same,tissue uptake at 4 h,[1]; muscle,0.3 ± 0.02 %ID/g
same,tissue uptake at 24 h,[1]; muscle,0.25 ± 0.05 %ID/g
same,increase of kidney uptake as compared to 64Cu-M10,"[2]; H2009 tumor bearing mice, 1 h, 4 h, 24 h p.i.",~6 fold
same,Tumor uptake,[2]; [4],1.6 ± 0.20 %ID/g
same,Tumor/Lung,[2]; [4],1.0 ± 0.25
same,Tumor uptake,[2]; [5],0.85 ± 0.19 %ID/g
same,Tumor/Lung,[2]; [5],1.2 ± 0.19
same,Tumor uptake,[2]; [6],0.79 ± 0.03 %ID/g
same,Tumor/Lung,[2]; [6],1.9 ± 0.04
same,tumor uptake increase as compared to 64Cu-M10,[2],~3 fold
same,tissue uptake at 1 h,[3]; heart,1.7 %ID/g
same,tissue uptake at 4 h,[3]; heart,1.25 ± 0.07 %ID/g
same,tissue uptake at 24 h,[3]; heart,0.83 ± 0.17 %ID/g
same,tissue uptake at 1 h,[3]; kidney,85.4 ± 17.5 %ID/g
same,tissue uptake at 4 h,[3]; kidney,92.9 ± 11.3 %ID/g
same,tissue uptake at 24 h,[3]; kidney,68.9 ± 8.13 %ID/g
same,tissue uptake at 1 h,[3]; liver,5.45 ± 0.49 %ID/g
same,tissue uptake at 4 h,[3]; liver,4.8 ± 0.14 %ID/g
same,tissue uptake at 24 h,[3]; liver,3.25 ± 0.21 %ID/g
same,tissue uptake at 1 h,[3]; lung,1.5 ± 0.14 %ID/g
same,tissue uptake at 4 h,[3]; lung,1.15 ± 0.07 %ID/g
same,tissue uptake at 24 h,[3]; lung,0.77 ± 0.01 %ID/g
same,tissue uptake at 1 h,[3]; muscle,0.45 ± 0.18 %ID/g
same,tissue uptake at 4 h,[3]; muscle,0.31 ± 0.06 %ID/g
same,tissue uptake at 24 h,[3]; muscle,0.38 ± 0.08 %ID/g
same,Tumor uptake,H460 (αvβ6^-) xenografts; 1 h p.i.,0.71 ± 0.05 %ID/g
same,Tumor uptake,H460 (αvβ6^-) xenografts; 4 h p.i.,0.83 ± 0.04 %ID/g
same,Tumor uptake,H460 (αvβ6^-) xenografts; 24 h p.i.,0.53 ± 0.17 %ID/g
"CC(=O)N[C@@H](CCCNC(=N)N)C(=O)NCC(=O)N[C@@H](CC(=O)O)C(=O)N[C@@H](CC(C)C)C(=O)N[C@@H](C)C(=O)N[C@H](C(=O)N[C@@H](CC(C)C)C(=O)N[C@@H](CCCNC(=N)N)C(=O)N[C@@H](CCC(N)=O)C(=O)N[C@@H](CC(C)C)C(=O)NCCOCCOCCOCCOCCOCCOCCOCCOCCOCCOCCOCCOCCC(=O)N[C@@H](CSC1CC(=O)N(CCC(=O)NCCCC[C@H](NC(=O)CCN2C(=O)CC(SC[C@H](NC(=O)CCOCCOCCOCCOCCOCCOCCOCCOCCOCCOCCOCCOCCNC(=O)[C@H](CC(C)C)NC(=O)[C@H](CCC(N)=O)NC(=O)[C@H](CCCNC(=N)N)NC(=O)[C@H](CC(C)C)NC(=O)[C@@H](NC(=O)[C@H](C)NC(=O)[C@H](CC(C)C)NC(=O)[C@H](CC(=O)O)NC(=O)CNC(=O)[C@H](CCCNC(=N)N)NC(C)=O)[C@@H](C)O)C(N)=O)C2=O)C(=O)NCCC(=O)N[C@@H](CSC2CC(=O)N(CCNC(=O)CCC(C(=O)O)N3CCCN4CCN(CCCN(CC(=O)O)CC4)CC3)C2=O)C(N)=O)C1=O)C(N)=O)[C@@H](C)O (some centres unmarked) [^64Cu-AcD10, metal not drawn]",tissue uptake at 1 h,[1]; heart,0.78 ± 0.05 %ID/g
same,tissue uptake at 24 h,[1]; heart,0.21 ± 0.01 %ID/g
same,tissue uptake at 1 h,[1]; kidney,18.8 ± 2.2 %ID/g
same,tissue uptake at 4 h,[1]; kidney,19.1 ± 3.3 %ID/g
same,tissue uptake at 24 h,[1]; kidney,5.4 ± 0.87 %ID/g
same,tissue uptake at 1 h,[1]; liver,1.08 ± 0.11 %ID/g
same,tissue uptake at 4 h,[1]; liver,0.72 ± 0.09 %ID/g
same,tissue uptake at 24 h,[1]; liver,0.55 ± 0.1 %ID/g
same,tissue uptake at 1 h,[1]; lung,1.33 ± 0.23 %ID/g
same,tissue uptake at 4 h,[1]; lung,0.65 ± 0.03 %ID/g
same,tissue uptake at 24 h,[1]; lung,0.34 ± 0.08 %ID/g
same,tissue uptake at 1 h,[1]; muscle,0.83 ± 0.14 %ID/g
same,tissue uptake at 4 h,[1]; muscle,0.42 ± 0.05 %ID/g
same,tissue uptake at 24 h,[1]; muscle,0.32 ± 0.1 %ID/g
same,Tumor uptake,[2]; [4],1.46 ± 0.15 %ID/g
same,Tumor/Lung,[2]; [4],1.1 ± 0.27
same,Tumor uptake,[2]; [5],0.98 ± 0.01 %ID/g
same,Tumor/Lung,[2]; [5],1.51 ± 0.03
same,Tumor uptake,[2]; [6],0.68 ± 0.02 %ID/g
same,Tumor/Lung,[2]; [6],2.0 ± 0.08
same,tumor uptake increase as compared to 64Cu-M10,[2],~3 fold
same,tissue uptake at 1 h,[3]; heart,0.82 ± 0.05 %ID/g
same,tissue uptake at 4 h,[3]; heart,0.5 ± 0.04 %ID/g
same,tissue uptake at 24 h,[3]; heart,0.26 %ID/g
same,tissue uptake at 1 h,[3]; kidney,19.5 ± 0.36 %ID/g
same,tissue uptake at 4 h,[3]; kidney,18.4 ± 0.92 %ID/g
same,tissue uptake at 24 h,[3]; kidney,3.43 ± 1.8 %ID/g
same,tissue uptake at 1 h,[3]; liver,1.13 ± 0.15 %ID/g
same,tissue uptake at 4 h,[3]; liver,0.95 ± 0.06 %ID/g
same,tissue uptake at 24 h,[3]; liver,0.71 ± 0.04 %ID/g
same,tissue uptake at 1 h,[3]; lung,1.02 ± 0.06 %ID/g
same,tissue uptake at 4 h,[3]; lung,0.65 ± 0.02 %ID/g
same,tissue uptake at 24 h,[3]; lung,0.24 ± 0.1 %ID/g
same,tissue uptake at 1 h,[3]; muscle,0.61 ± 0.12 %ID/g
same,tissue uptake at 4 h,[3]; muscle,0.35 ± 0.05 %ID/g
same,tissue uptake at 24 h,[3]; muscle,0.19 ± 0.13 %ID/g
same,Tumor uptake,H460 (αvβ6^-) xenografts; 1 h p.i.,0.73 ± 0.13 %ID/g
same,Tumor uptake,H460 (αvβ6^-) xenografts; 4 h p.i.,0.45 ± 0.11 %ID/g
same,Tumor uptake,H460 (αvβ6^-) xenografts; 24 h p.i.,0.35 ± 0.05 %ID/g
"N=C(N)NCCC[C@@H]1NC(=O)[C@H](CCCCNC(=O)CCC(C(=O)O)N2CCCN3CCN(CCCN(C(CCC(=O)NCCCC[C@@H]4NC(=O)[C@@H](Cc5ccc(O)cc5)NC(=O)[C@H](CC(=O)O)NC(=O)CNC(=O)[C@H](CCCNC(=N)N)NC4=O)C(=O)O)CC3)CC2)NC(=O)[C@@H](Cc2ccc(O)cc2)NC(=O)[C@H](CC(=O)O)NC(=O)CNC1=O (some centres unmarked) [^64Cu-CB-TE2A-(c(RGDyK))2, metal not drawn, reference compound]",tissue uptake at 1 h,[1]; heart,1.67 ± 0.13 %ID/g
same,tissue uptake at 4 h,[1]; heart,0.58 ± 0.13 %ID/g
same,tissue uptake at 24 h,[1]; heart,0.4 ± 0.12 %ID/g
same,tissue uptake at 1 h,[1]; kidney,3.43 ± 0.25 %ID/g
same,tissue uptake at 4 h,[1]; kidney,1.35 ± 0.54 %ID/g
same,tissue uptake at 24 h,[1]; kidney,0.93 ± 0.09 %ID/g
same,tissue uptake at 1 h,[1]; liver,2.56 ± 0.41 %ID/g
same,tissue uptake at 4 h,[1]; liver,1.97 ± 0.19 %ID/g
same,tissue uptake at 24 h,[1]; liver,1.65 ± 0.35 %ID/g
same,tissue uptake at 1 h,[1]; lung,0.7 ± 0.05 %ID/g
same,tissue uptake at 4 h,[1]; lung,0.61 ± 0.17 %ID/g
same,tissue uptake at 24 h,[1]; lung,0.39 ± 0.18 %ID/g
same,tissue uptake at 1 h,[1]; muscle,0.41 ± 0.04 %ID/g
same,tissue uptake at 4 h,[1]; muscle,0.26 ± 0.12 %ID/g
same,tissue uptake at 24 h,[1]; muscle,0.24 ± 0.08 %ID/g
same,Tumor uptake,[2]; [4],1.58 ± 0.13 %ID/g
same,Tumor uptake,[2]; [5],1.07 ± 0.21 %ID/g
same,Tumor uptake,[2]; [6],0.7 %ID/g and 0.70 ± 0.29 %ID/g
same,tissue uptake at 1 h,[3]; heart,1.9 ± 0.72 %ID/g
same,tissue uptake at 4 h,[3]; heart,0.54 ± 0.26 %ID/g
same,tissue uptake at 24 h,[3]; heart,0.42 ± 0.05 %ID/g
same,tissue uptake at 1 h,[3]; kidney,4.33 ± 1 %ID/g
same,tissue uptake at 4 h,[3]; kidney,1.8 ± 0.57 %ID/g
same,tissue uptake at 24 h,[3]; kidney,1.2 ± 0.14 %ID/g
same,tissue uptake at 1 h,[3]; liver,2.13 ± 0.25 %ID/g
same,tissue uptake at 4 h,[3]; liver,1.61 ± 0.41 %ID/g
same,tissue uptake at 24 h,[3]; liver,2.05 ± 0.07 %ID/g
same,tissue uptake at 1 h,[3]; lung,0.68 ± 0.02 %ID/g
same,tissue uptake at 4 h,[3]; lung,0.48 ± 0.06 %ID/g
same,tissue uptake at 24 h,[3]; lung,0.3 ± 0.01 %ID/g
same,tissue uptake at 1 h,[3]; muscle,0.39 ± 0.06 %ID/g
same,tissue uptake at 4 h,[3]; muscle,0.31 ± 0.04 %ID/g
same,tissue uptake at 24 h,[3]; muscle,0.27 ± 0.03 %ID/g
same,Tumor uptake,H460 (αvβ6^-) xenografts; 1 h p.i.,1.64 ± 0.20 %ID/g
same,Tumor uptake,H460 (αvβ6^-) xenografts; 4 h p.i.,1.09 ± 0.24 %ID/g
same,Tumor uptake,H460 (αvβ6^-) xenografts; 24 h p.i.,0.7 %ID/g and 0.72 ± 0.10 %ID/g

# Reference: PMC4038756 (Theranostics, 2014)
